{"source": "the nanobody polyreactivity screen of Harvey et al. (2022)", "assay": "yeast display, Sf9 membrane polyspecificity reagent, FACS + sequencing; frameworks hold sequencing errors", "summary_of_the_method": "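Using colony PCR, genes from sorted yeast display clones were amplified, then sequenced on MiSeq at 2 × 250 and filtered by CDR length. The clones had been stained with 10% biotinylated, detergent-solubilized Sf9 membrane reagent for 1 hour at 4 °C and sorted by FACS into low and high (top ~1%) gates on anti-HA and streptavidin fluorescence. Polyreactivity labels come from the gate of origin.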", "data": [{"sequence": "QVQLVESVGGLVQAGGSLRLTCAASVFTFGYYAMGWYRQAPGKERELVAAITWSGGRTYYADSVKGRFTISRDNAKYTVYLQMNSLKPEDTAVYYCAVETLWQGSEYWGQGTQVTVSS", "values": [{"measurement": "polyreactivity (PSR sort gate)", "value": "low polyreactivity"}]}, {"sequence": "QVQLVESGGGLVQAGGSLRLSCAASGFTFYSYAMGWYRQAPGKERELVAVISKRGGSTRYADSVKGRFTISRDNAKNTVYLQMNSLKPEDTAVYYCNADQHSITYNEFDYWGQGTQVTVSS", "values": [{"measurement": "polyreactivity (PSR sort gate)", "value": "low polyreactivity"}]}, {"sequence": "QVQLVESGGGLVQAGGSLRLSCAASGSTLGVYAMGWYRQAPGTERELVAAISSGGSTTYADSVKGRFTISRDNEKNTVYLQMNSLKPEDTAVYYCAADRYEGYVTWYWWGAYNYDYWGQGTQVTVSS", "values": [{"measurement": "polyreactivity (PSR sort gate)", "value": "high polyreactivity"}]}, {"sequence": "QVQLVESGGGLVQAGGSLRLSCADSGSIFSPYAMGWYRQAPGKERELVAAITNSGGRTYYADSVKGRFTISRDNAKNTVYLQMNSLKPEDTAVYYCNADYGKHHPDYYYWGQGTQVTVSS", "values": [{"measurement": "polyreactivity (PSR sort gate)", "value": "low polyreactivity"}]}, {"sequence": "QVQLVESGGGLVQAGGTLRVSCAASGLIFYGNVMGWYRQAPGKERELVAGISRNSGSTYYADSVKGRFTISRDNANNTVYLQMNSLKPEDTAVYYCAALKFEAWAGEDYWGPGTQVTVSS", "values": [{"measurement": "polyreactivity (PSR sort gate)", "value": "low polyreactivity"}]}, {"sequence": "KVQLVESGGGLVQARGSLRLSCAASGRIIRYYVMGWYRQAPGKERELVASISWRGTSTYYADSVKGRFTISRDNAKNTVYLQMNSLKPEDTAVYYCNAARPGKNYDSWGQGTQVTVSS", "values": [{"measurement": "polyreactivity (PSR sort gate)", "value": "high polyreactivity"}]}, {"sequence": "QVQLVESGGGLVQAGGSLRLSCAASGFTFRANGMGWSRQAPGKERELVAVITSGGTTNYADSVKGRFTISRDNAKNTVYLQMNSLKPEDTAVYYCAVPYEPTSIPERRDYYRADDYWGQGTQVTVSS", "values": [{"measurement": "polyreactivity (PSR sort gate)", "value": "low polyreactivity"}]}, {"sequence": "QVQLVESGGGLVQAGGSLRLSCAASGSTFQFYAMGWYRQAPGKERELVAAISVSGDRTYYADSVKGRFTISRDNAKNTVYLQMNSLKPEDTAVYYCAARYGPFKRRFDYWGQGTQVTVSS", "values": [{"measurement": "polyreactivity (PSR sort gate)", "value": "high polyreactivity"}]}, {"sequence": "QVQLVESGGGLVQARGSLRLSCAASGSTSDINAMGWYRHAPGKARELVAVITDSSNTDYADSVKGRFTISRDNAKNTVYLQMNSLKPEDTAVYYCARDDATAGDYWGQGTQVTVSS", "values": [{"measurement": "polyreactivity (PSR sort gate)", "value": "low polyreactivity"}]}, {"sequence": "QVQHVESGGGLVQAGGSLRLSCAASGFTFRWYTMGWYRQAPGKERELVASIRYGGGSTYYADSVKGRFTISRDNAKNTVYLQMNSLKPEDTAVYYCAAESAWTSPYDYWGQGTQVTVSS", "values": [{"measurement": "polyreactivity (PSR sort gate)", "value": "high polyreactivity"}]}, {"sequence": "QVQLEESGAGLVQAGGSLRLTCAASGSTFYSNVMGWYRQAPGKEREFVAGISGSGGSTYYADSVKGRFTISRDNGNISVYLLINSLKPEDPAVYYCKAVRYPRLLYYWGQGTQVNVSS", "values": [{"measurement": "polyreactivity (PSR sort gate)", "value": "high polyreactivity"}]}, {"sequence": "QVQLVESGGGLVQAGGSLRLSCAASGSTFPLYAMGWYRQAAGKEWELVAAITSGGGNTYYADSVKGRFTISRDNAKNTVYLQMNSLKPEDTAVYYCAAVGGYKSYYSYEYDYWGQGTQETVSS", "values": [{"measurement": "polyreactivity (PSR sort gate)", "value": "low polyreactivity"}]}, {"sequence": "QVQLVESGGGLVQAGGSLRLSCAASGTFVTYMGWYRQAPGKERELVAAIRNGGSTNYADSVKGRFTISRDKAKNTVYLQMNSLKPEDTAVYYCAADRAGSIMNYWGQGTQVTVSS", "values": [{"measurement": "polyreactivity (PSR sort gate)", "value": "low polyreactivity"}]}, {"sequence": "QVQLVESGGGLVQAGGSLRLSCAASGTIFTINAMGWYRQAAGKERELVAAISWSGAHTYYADSVKGRFTISRDNAKNTVFLQMNSLKPEDTAVYYCATGYNYLERNTGYFHRFDYWGQGTQVTVSS", "values": [{"measurement": "polyreactivity (PSR sort gate)", "value": "low polyreactivity"}]}, {"sequence": "QVQLVESGGGLVQAGGSLRLSCAPSGITFYGNDMGWYRQAPGKERELVAAISSGGITNYADSVKGRFTISRDNAKNSVYLQMNSLKPEDTAVYYCAKDLLYYHITPDGYTWYLPEDSWGQGTQVTVSS", "values": [{"measurement": "polyreactivity (PSR sort gate)", "value": "low polyreactivity"}]}, {"sequence": "QVQLVESGGGLVQEGGSLRLSCAASGSIFFPYAMGWYRQAPGKEREFFADITWSGGSTYYADSVKGRFTISRDNAKNTVYLQMNSLKPEDTAVYYCNTDYYLLSVVWFSYTLYEYWGQGTQVTLSS", "values": [{"measurement": "polyreactivity (PSR sort gate)", "value": "high polyreactivity"}]}, {"sequence": "QVQLVESGGGLVQAGGSLRLSCAASGRTFPYYAMGWYRQAPGKERELVATITYSGGSTYYADSVKGRFTISRDNAKNTVYLQMNSLKPEDTAVYYCAADTGEYSAQYDYWGQGTQVTVSS", "values": [{"measurement": "polyreactivity (PSR sort gate)", "value": "high polyreactivity"}]}, {"sequence": "QVQLVESRGGIVQAGGSLRLSCAASGRIFQYYAKGWYRQAPGKEWELVAAIISSGGRTYYADSVKGRFTISRDNAKKTVYVQMNSLKPEDTAVYYCNAVLSTRGMDFWGQGTQVTVSS", "values": [{"measurement": "polyreactivity (PSR sort gate)", "value": "high polyreactivity"}]}, {"sequence": "QVQLVESGGGLVQAGGSLRLSCAASGSIFSGYVMGWYRQAPGKERELVAAINSRAGRTYYADSVKGRFTISRDNAKNTVYLQMNSLKPEDTAVYYCNAPTSFHRGGGYWGQGTQVTVSS", "values": [{"measurement": "polyreactivity (PSR sort gate)", "value": "high polyreactivity"}]}, {"sequence": "QVQLVESGGGLVQAGGSLRLSCAASGGIFVTYTMGWYRQAPGKERELVAGINSRSGSTYADSVKGRFTISRDNAKNTVYLQMNSLKLEDTAVYYCAADRIDLGRASRYGYWGQGTQVTVSS", "values": [{"measurement": "polyreactivity (PSR sort gate)", "value": "low polyreactivity"}]}, {"sequence": "QVQRVESGVGIVQAGGSLRLSSAASGFIFSRYAMGWYRQAPGNERQLVAAIRFSGSITYYADSVKGRFTISRDNAKNTVYLQMNSLKPEDTAVYYCAAPLTFFKRVYYWGQGTQLTVSS", "values": [{"measurement": "polyreactivity (PSR sort gate)", "value": "high polyreactivity"}]}]}
